Laboratory results from patent US20240239907A1 (EDELWEISS IMMUNE, published 2024).
Substitutions are numbered along the chain they refer to.

B1: Beacon1-G12 (antibody, V domains shown)
VH: EIQLVQSGPELKKPGKTVKISCKASGYTFTTYGMSWVKQAPGKALKWMGWINTYSGVPTYADDFKGRFAFSLETSASTAYLQINNLKNEDTATYFCAIRRLSITLHGMDYWGQGTSVTVS
VL: DIQMTQSPASLSVSVGETVTITCRASENIYSNLAWYQQKQGKSPQLLVYGATNLADGVPSRFSGSGSGTQYSLKINSLQSEDFGSYYCQHFWGTPWTFGGGTKLEIK
notes: Mouse-derived
B2: Beacon1-A4 (antibody, V domains shown)
VH: EVQLQQSGPVLVKPGASVKMSCKTSGYTFTDYYMNWVKQSHGKSLEWIGVIKPYSGRTSYDQKFKDKATLTVDKSSSTAYMELNSLTSEDSAVYYCAREGVSITTVGSSLYYYPMDYWGQGTSVTVSS
VL: DIVLTQSPATLSVTPGASVSLSCRASQSISNNLHWYQQKSHESLRLLIKYASQSVSGIPSRFSGSGSGTDFTLTINSVETEDFGMYFCQQSNSWPRTFGGGTKLEIK
notes: Mouse-derived; tested at the screening stage
B3: CNGs-1B7 (antibody, V domains shown)
VH: EVKLEESGGGLVRPGGSMKLSCVASGFTFSDYWMNWVRQSPEKGLEWLAQIRLNSGNYAARYAESVKGRFTISRDDSKNSVYLQMINLRAEDTGIYFCTSNAWLANWGQGTLVTVSA
VL: DIVMTQTAPSVPVTPGESVSISCRSSKSLLHSNGNTYLYWFLQRPGQSPQRLIYSVSNLASGVPDRFSGRGSGTDFTLTISRVEAEDVGVYYCMQSLEYPYTFGGGTKLEIK
notes: Mouse-derived
B4: Genovac2-H2 (antibody, V domains shown)
VH: B3 VH
VL: B1 VL with S31N, G50A
notes: as for B2
B5: CNE-7B1 (antibody, V domains shown)
VH: QVQLQQSGPELVKPGTSVRISCKTSGYTFTSSYVHWVKRRPGQGLEWIGWIYPGNDYTKYNEKFKGKATLTADKSSSTAYMRLSSLASEDSAVYFCTRSYYGFDYWGQGTTLTVSS
VL: DVLMTQTPLSLPVSLGDQASISCRSGQSIVRSRGNTYLEWYLQKPGQSPKLLIYKVSNRFSGVPDRFSGSGSGTDFTLKISRVEAEDLGVYYCFQGSHVPYTFGGGTKLEIK
notes: as for B2
B6: CNGs-1E1-G5 (antibody, V domains shown)
VH: QVQLQQSGPELVKPGASVRISCKASGYTFTTSYIHWVKQRPGQGLEWIGWISPGNVNTRSNEKFKGKATLTADKSSNTAYMQLSSLTSEDSAVYFCAKSYFGFDFWGQGTTLTVSS
VL: B5 VL with G26S, R31H, R33N, L42V, F60S
notes: as for B2
B7: Genovac1-D12 (antibody, V domains shown)
VH: EVKLEESGGGLVQPGGSMKLSCVASGFTFSNYWMNWVRQSPEKGLKWVAQIRLKSDNYGTHYAESVKGRFTISRDDSKGSVYLQMNNLRAEDTGIYYCTSNAWFAYWGQGTLVTVSA
VL: DIVMTQAAPSVPVTPGESVSISCRSSKSLLHSNGNTYLFWFLQRPGQSPQRLISYMSNLASGVPDRFSGRGSGTDFTLRISRVEAEDVGVYYCLLSLEYPYTFGSGTRLEIT
notes: as for B2
B8: COXs-7A7 (antibody, V domains shown)
VH: EVQLMESGGGLVKPGGSRKLSCAASGFTFSDYGMHWVRQAPEKGLEWIAYINSGSSTIHYADSVKGRFTISRDNAKNTLFLQMTSLRSEDTAMYYCVRPGFAYWGQGTLITVSA
VL: DIVMTQTPLTLSTTVGQSAFISCRSSQSLLHRNGNTYLNWFLQRPGQSPQLLVYEIFERKSGVPDRFSGSGSGTDFTLKISRVEAEDLGVYYCMQATYEPLTFGAGTKLELK
notes: as for B2
B9: COXs-7E6 (antibody, V domains shown)
VH: B8 VH with Y32H, Q82H
VL: B8 VL with T13I
notes: as for B2
B10: CNGs-1B7-E4 (antibody, V domains shown)
VH: EVQLVESGGGLVQPRGSLKLSCAASGFTFNTYAMNWVRQAPGNGLEWVARIRSKSYNYATYHAGSVKDRFTISRDDSQNMLYLQMNNLKTEDTAMYYCMRGQTYWGQGTLVTVSA
VL: DVVLTQTPLSLPVNIGDQASISCKSTKSLLNSDGFTYLDWHLQKPGQSPQLLIYLVSNRFSGVPDRFSGSGSGTDFTLKISRVEAEDLGVYYCFQSNYLPFTFGSGTKLEMK
notes: as for B2
B11: CNGs-3H2-B7 (antibody, V domains shown)
VH: EVQLVESGGGLVQPKGSLKLSCAASGVSFKTYAMTWVRQAPGKGLEWVARIRSKRYNYATYYADSVKDRFTISRDDSESMLYLQMNNLKTEDTAMYYCMRQGAYWGQGTLVTVSA
VL: B10 VL with H41Y, Q50H, M111I
notes: as for B2
B12: Beacon2-A3 (antibody, V domains shown)
VH: EVQIVESGGGLVQPKGSLKLSCAASGFSFNTYAMNWVRQAPGKGLEWVARIRTKRNNYVKFYADSVKDRFTISRDDSESMLYLQMNILKTEDTAMYYCVRQGAYWGQGTLVTVSA
VL: B10 VL with H41Y, Y92F, F101Y, S105G, M111I
notes: as for B2
B13: Beacon2-E5 (antibody, V domains shown)
VH: B12 VH with I4L, D68G, E78Q, I87N, T90A, M95I, Y104F
VL: B10 VL with H41Y, K79R, F101Y, S105G, M111I
notes: as for B2
B14: Beacon2-D5 (antibody, V domains shown)
VH: EVQLVESGGGLVQPKGSLKLSCAASGFTFNTYAMNWVRQAPGKGLEWVARIRSKSNNYATYYADSVKDRFTISRDDSQSMLYLQMNNLKTEDTAMYYCLSHGAFAYWGQGTLVTVSA
VL: not shown
notes: as for B2
B15: CNE-6E10 (antibody, V domains shown)
VH: B14 VH with T28S, S55T, N57S, A59E, Q78E, M95V
VL: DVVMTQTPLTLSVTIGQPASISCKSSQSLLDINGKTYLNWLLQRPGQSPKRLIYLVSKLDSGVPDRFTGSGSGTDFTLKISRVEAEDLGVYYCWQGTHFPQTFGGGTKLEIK
notes: Mouse-derived
B16: CNE-6H7-G7 (antibody, V domains shown)
VH: B14 VH with T28S, A59G, Q78E, Q84K, A103S, F104S
VL: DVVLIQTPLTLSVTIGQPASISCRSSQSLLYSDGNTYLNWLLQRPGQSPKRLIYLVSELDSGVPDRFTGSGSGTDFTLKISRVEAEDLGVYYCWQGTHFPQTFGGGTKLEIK
notes: as for B2
B17: CNGs-1C1 (antibody, V domains shown)
VH: B14 VH with Q13R, T28S, T31A, Q78E
VL: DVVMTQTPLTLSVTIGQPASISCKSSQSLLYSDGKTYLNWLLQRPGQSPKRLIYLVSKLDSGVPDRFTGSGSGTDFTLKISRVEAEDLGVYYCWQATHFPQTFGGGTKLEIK
notes: as for B2
B18: CNF-2F8 (antibody, V domains shown)
VH: B14 VH with T28S, N30Q, S55R, T71S, Q78E, S79N
VL: not shown
notes: as for B2
B19: COXs-11H4 (antibody, V domains shown)
VH: EVQLVESGGGLVQPKGSLKLSCAASGFTFNTYAMNWVRQVPGKGLEWIARMRSESKNFATYYADSVKDRFTISRDDSESILYLQMNNLKTEDTGMYYCVRQGNFDVWGTGTTVTVSS
VL: DVVMTQAPLSLSVSLGDQASISCRSGQNIVHTDGNTYLYWSLQKPGQSPNLLIYKVSNRFSGVPDRFSGSGSGTDFTLKINRVEAEDMGVYYCFQLTHVPYTFGGGTKLEIK
notes: as for B2
B20: COXs-1B10 (antibody, V domains shown)
VH: QVTLKESGPGILKASQTLSLTCSFSGFSLSTSGMGIGWIRQPSGKGPEWLAHIWWDDEKYYRPSLKSRLTVSKDTSRNQVFLNITSVDTTDSASYYCVQRTPGRFAYWGQGTLVTVST
VL: DIVMTQSPSSLAVSIGQKVIMSCKSSQSLLSSRTQKNYLAWYQQKPGQSPKLLVYFASIRESGVPDRFTGSGSGTDFTLTISTVQAEDLAVYYCQQYFLTPYTFGGGTKLEIK
notes: Mouse antibody
B21: Beacon2-A7 (antibody, V domains shown)
VH: EMKLEESGGGLVQPGGSMKLSCVASGFTFSNYWMSWVRQSPEKGLQWVGQIRLKSDNYATHYAESVKGKFTISRDDSKSSVYLQMNNLRAEDTGIYYCAPYSNWGYWGQGTTLTVSS
VL: DIVMTQAAPSIPVTPGGSVSISCRSTKSLLHTNGNTYLYWFLQRPGQSPQVLIYRMSNLASGVPDRFSGSGSGTAFTLRISRVEAEDVGVYYCMQYLEYPYTFGSGTKLEIK
notes: as for B2
B22: COXs-2D2 (antibody, V domains shown)
VH: EVQLVESGGGLVQPKGSLKLSCTASGFSFDTYAMNWVRQAPGKGLEWIARIRSKSKNYATYYADSVKDRFTISRDDSANILYLQMNNLKTEDTAIYYCLRQGSFDYWGQGTTLTVSS
VL: DVVLTQTPLSLPVSLGDQASISCRSGQRIVHTDGNTYLYWYLQKPGQSPKLLIYRVSNRFSGVPDRFSGSGSGTDFTLKISRVEAEDMGIYYCFQGTHFPYTFGGGTKLEIK
notes: Mouse-derived
B23: COXs-4H5 (antibody, V domains shown)
VH: B1 VH
VL: B22 VL with L4M, T7S, S22Y, G26S, T32S, K44R
notes: as for B2
B24: COXs-11E5 (antibody, V domains shown)
VH: B22 VH with I48V, I72V
VL: B22 VL with L4M, G26S, T77I
notes: as for B2
B25: COXs-2D4 (antibody, V domains shown)
VH: B22 VH with Q3H, Y58S
VL: B22 VL with L4M, G26S, S81T
notes: as for B2
B26: COXs-9D6 (antibody, V domains shown)
VH: B22 VH with Q3H, I48V, K67T, R100S
VL: B22 VL with L4M, G26S, T77I
notes: as for B2
B27: COXs-12E7 (antibody, V domains shown)
VH: B22 VH with Q3H, T23K, I48V, N57S
VL: B22 VL with L4M, S22Y, G26S, T32S, K44R
notes: as for B2

molecular target: T1, human CXCR6 (human, UniProt O00574 1-342); assay: screening on cells overexpressing CXCR6, one single concentration, yes/no
T1 construct: also called hu-CXCR6; wild type human CXCR6
T1 sequence (O00574 whole entry): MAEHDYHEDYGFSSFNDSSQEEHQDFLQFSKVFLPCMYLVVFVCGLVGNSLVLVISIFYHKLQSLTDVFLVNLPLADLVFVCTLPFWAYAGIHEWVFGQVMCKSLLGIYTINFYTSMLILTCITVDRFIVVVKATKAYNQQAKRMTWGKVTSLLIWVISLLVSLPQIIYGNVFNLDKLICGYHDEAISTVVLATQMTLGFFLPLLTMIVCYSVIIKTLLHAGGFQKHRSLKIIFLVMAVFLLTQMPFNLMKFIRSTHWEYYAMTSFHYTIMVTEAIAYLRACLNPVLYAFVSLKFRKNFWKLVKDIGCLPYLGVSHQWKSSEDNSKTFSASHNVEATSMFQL

Row | Binder | binding result
1 | B1 | binds
2 | B2 | binds
3 | B3 | binds
4 | B4 | binds
5 | B5 | binds
6 | B6 | binds
7 | B7 | binds
8 | B8 | binds
9 | B9 | binds
10 | B10 | binds
11 | B11 | binds
12 | B12 | binds
13 | B13 | binds
14 | B14 | binds
15 | B15 | binds
16 | B16 | binds
17 | B17 | binds
18 | B18 | binds
19 | B19 | binds
20 | B20 | binds
21 | B21 | binds
22 | B22 | binds
23 | B23 | binds
24 | B24 | binds
25 | B25 | binds
26 | B26 | binds
27 | B27 | binds
